B1: TBC1 domain family member 22B (Homo sapiens), Q9NU19 (parent)
chain: MAAENSKQFWKRSAKLPGSIQPVYGAQHPPLDPRLTKNFIKERSKVNTVPLKNKKASSFHEFARNTSDAWDIGDDEEEDFSSPSFQTLNSKVALATAAQVLENHSKLRVKPERSQSTTSDVPANYKVIKSSSDAQLSRNSSDTCLRNPLHKQQSLPLRPIIPLVARISDQNASGAPPMTVREKTRLEKFRQLLSSQNTDLDELRKCSWPGVPREVRPITWRLLSGYLPANTERRKLTLQRKREEYFGFIEQYYDSRNEEHHQDTYRQIHIDIPRTNPLIPLFQQPLVQEIFERILFIWAIRHPASGYVQGINDLVTPFFVVFLSEYVEEDVENFDVTNLSQDMLRSIEADSFWCMSKLLDGIQDNYTFAQPGIQKKVKALEELVSRIDEQVHNHFRRYEVEYLQFAFRWMNNLLMRELPLRCTIRLWDTYQSEPEGFSHFHLYVCAAFLIKWRKEILDEEDFQGLLMLLQNLPTIHWGNEEIGLLLAEAYRLKYMFADAPNHYRR

The variants in the assay derive from B1. The following applies: with gcp60_human ACBD3, Q9H3P7.
For MAAENSKQFWKRSAKLPGSIQPVYGAQHPPLDPRLTKNFIKERSKVNTVPLKNKKASSFHEFARNTSDAWDIGDDEEEDFSSPSFQTLNSKVALATAAQVLENHSKLRVKPEREQSTTSDVPANYKVIKSSSDAQLSRNSSDTCLRNPLHKQQSLPLRPIIPLVARISDQNASGAPPMTVREKTRLEKFRQLLSSQNTDLDELRKCSWPGVPREVRPITWRLLSGYLPANTERRKLTLQRKREEYFGFIEQYYDSRNEEHHQDTYRQIHIDIPRTNPLIPLFQQPLVQEIFERILFIWAIRHPASGYVQGINDLVTPFFVVFLSEYVEEDVENFDVTNLSQDMLRSIEADSFWCMSKLLDGIQDNYTFAQPGIQKKVKALEELVSRIDEQVHNHFRRYEVEYLQFAFRWMNNLLMRELPLRCTIRLWDTYQSEPEGFSHFHLYVCAAFLIKWRKEILDEEDFQGLLMLLQNLPTIHWGNEEIGLLLAEAYRLKYMFADAPNHYRR [S114E], the “effect of a mutation on the interaction” value was “with no effect”.
With MAAENSKQFWKRSAKLPGSIQPVYGAQHPPLDPRLTKNFIKERSKVNTVPLKNKKASSFHEFARNTSDAWDIGDDEEEDFSSPSFQTAAAKVALATAAQVLENHSKLRVKPERSQSTTSDVPANYKVIKSSSDAQLSRNSSDTCLRNPLHKQQSLPLRPIIPLVARISDQNASGAPPMTVREKTRLEKFRQLLSSQNTDLDELRKCSWPGVPREVRPITWRLLSGYLPANTERRKLTLQRKREEYFGFIEQYYDSRNEEHHQDTYRQIHIDIPRTNPLIPLFQQPLVQEIFERILFIWAIRHPASGYVQGINDLVTPFFVVFLSEYVEEDVENFDVTNLSQDMLRSIEADSFWCMSKLLDGIQDNYTFAQPGIQKKVKALEELVSRIDEQVHNHFRRYEVEYLQFAFRWMNNLLMRELPLRCTIRLWDTYQSEPEGFSHFHLYVCAAFLIKWRKEILDEEDFQGLLMLLQNLPTIHWGNEEIGLLLAEAYRLKYMFADAPNHYRR [L88A;N89A;S90A], the “effect of a mutation on the interaction” value is on record as “decreasing interaction strength”.
Consider MAAENSKQFWKRSAKLPGSIQPVYGAQHPPLDPRLTKNFIKERSKVNTVPLKNKKASSFHEFARNTSDAWDIGDDEEEDFSSPSFQTLNSAAALATAAQVLENHSKLRVKPERSQSTTSDVPANYKVIKSSSDAQLSRNSSDTCLRNPLHKQQSLPLRPIIPLVARISDQNASGAPPMTVREKTRLEKFRQLLSSQNTDLDELRKCSWPGVPREVRPITWRLLSGYLPANTERRKLTLQRKREEYFGFIEQYYDSRNEEHHQDTYRQIHIDIPRTNPLIPLFQQPLVQEIFERILFIWAIRHPASGYVQGINDLVTPFFVVFLSEYVEEDVENFDVTNLSQDMLRSIEADSFWCMSKLLDGIQDNYTFAQPGIQKKVKALEELVSRIDEQVHNHFRRYEVEYLQFAFRWMNNLLMRELPLRCTIRLWDTYQSEPEGFSHFHLYVCAAFLIKWRKEILDEEDFQGLLMLLQNLPTIHWGNEEIGLLLAEAYRLKYMFADAPNHYRR [K91A;V92A], for which the “effect of a mutation on the interaction” value is “with no effect”.
For MAAENSKQFWKRSAKLPGSIQPVYGAQHPPLDPRLTKNFIKERSKVNTVPLKNKKASSFHEFARNTSDAWDIGDDEEEDFSSPSFQTLNSKVALATAAQVLENHSKLRVKPERSQSTTSDVPANYKVIKSSSDAQLSRNEEDTCLRNPLHKQQSLPLRPIIPLVARISDQNASGAPPMTVREKTRLEKFRQLLSSQNTDLDELRKCSWPGVPREVRPITWRLLSGYLPANTERRKLTLQRKREEYFGFIEQYYDSRNEEHHQDTYRQIHIDIPRTNPLIPLFQQPLVQEIFERILFIWAIRHPASGYVQGINDLVTPFFVVFLSEYVEEDVENFDVTNLSQDMLRSIEADSFWCMSKLLDGIQDNYTFAQPGIQKKVKALEELVSRIDEQVHNHFRRYEVEYLQFAFRWMNNLLMRELPLRCTIRLWDTYQSEPEGFSHFHLYVCAAFLIKWRKEILDEEDFQGLLMLLQNLPTIHWGNEEIGLLLAEAYRLKYMFADAPNHYRR [S140E;S141E] the value was “with no effect”; for MAAENSKQFWKRSAKLPGSIQPVYGAQHPPLDPRLTKNFIKERSKVNTVPLKNKKASSFHEFARNTSDAWDIGDDEEEDFSSPSFQTLNSKVALATAAQVLAAASKLRVKPERSQSTTSDVPANYKVIKSSSDAQLSRNSSDTCLRNPLHKQQSLPLRPIIPLVARISDQNASGAPPMTVREKTRLEKFRQLLSSQNTDLDELRKCSWPGVPREVRPITWRLLSGYLPANTERRKLTLQRKREEYFGFIEQYYDSRNEEHHQDTYRQIHIDIPRTNPLIPLFQQPLVQEIFERILFIWAIRHPASGYVQGINDLVTPFFVVFLSEYVEEDVENFDVTNLSQDMLRSIEADSFWCMSKLLDGIQDNYTFAQPGIQKKVKALEELVSRIDEQVHNHFRRYEVEYLQFAFRWMNNLLMRELPLRCTIRLWDTYQSEPEGFSHFHLYVCAAFLIKWRKEILDEEDFQGLLMLLQNLPTIHWGNEEIGLLLAEAYRLKYMFADAPNHYRR [E102A;N103A;H104A], “with no effect”.
In the case of MAAENSKQFWKRSAKLPGSIQPVYGAQHPPLDPRLTKNFIKERSKVNTVPLKNKKASSFHEFARNTSDAWDIGDDEEEDFSSPSFQTLNSKVALATAAQVLENHSKLRVKPERSQSTTSDVPANYKVIKSSSDAQLSRNSSDECLRNPLHKQQSLPLRPIIPLVARISDQNASGAPPMTVREKTRLEKFRQLLSSQNTDLDELRKCSWPGVPREVRPITWRLLSGYLPANTERRKLTLQRKREEYFGFIEQYYDSRNEEHHQDTYRQIHIDIPRTNPLIPLFQQPLVQEIFERILFIWAIRHPASGYVQGINDLVTPFFVVFLSEYVEEDVENFDVTNLSQDMLRSIEADSFWCMSKLLDGIQDNYTFAQPGIQKKVKALEELVSRIDEQVHNHFRRYEVEYLQFAFRWMNNLLMRELPLRCTIRLWDTYQSEPEGFSHFHLYVCAAFLIKWRKEILDEEDFQGLLMLLQNLPTIHWGNEEIGLLLAEAYRLKYMFADAPNHYRR [T143E] it was “with no effect”; in that of MAAENSKQFWKRSAKLPGSIQPVYGAQHPPLDPRLTKNFIKERSKVNTVPLKNKKASSFHEFARNTSDAWDIGDDEEEDFSSPSFQTLNSKVALATAAAVLENHSKLRVKPERSQSTTSDVPANYKVIKSSSDAQLSRNSSDTCLRNPLHKQQSLPLRPIIPLVARISDQNASGAPPMTVREKTRLEKFRQLLSSQNTDLDELRKCSWPGVPREVRPITWRLLSGYLPANTERRKLTLQRKREEYFGFIEQYYDSRNEEHHQDTYRQIHIDIPRTNPLIPLFQQPLVQEIFERILFIWAIRHPASGYVQGINDLVTPFFVVFLSEYVEEDVENFDVTNLSQDMLRSIEADSFWCMSKLLDGIQDNYTFAQPGIQKKVKALEELVSRIDEQVHNHFRRYEVEYLQFAFRWMNNLLMRELPLRCTIRLWDTYQSEPEGFSHFHLYVCAAFLIKWRKEILDEEDFQGLLMLLQNLPTIHWGNEEIGLLLAEAYRLKYMFADAPNHYRR [Q99A], “with no effect”.
In the case of MAAENSKQFWKRSAKLPGSIQPVYGAQHPPLDPRLTKNFIKERSKVNTVPLKNKKASSFHEFARNTSDAWDIGDDEEEDFSSPSFQTLNSKVALATAAQAAENHSKLRVKPERSQSTTSDVPANYKVIKSSSDAQLSRNSSDTCLRNPLHKQQSLPLRPIIPLVARISDQNASGAPPMTVREKTRLEKFRQLLSSQNTDLDELRKCSWPGVPREVRPITWRLLSGYLPANTERRKLTLQRKREEYFGFIEQYYDSRNEEHHQDTYRQIHIDIPRTNPLIPLFQQPLVQEIFERILFIWAIRHPASGYVQGINDLVTPFFVVFLSEYVEEDVENFDVTNLSQDMLRSIEADSFWCMSKLLDGIQDNYTFAQPGIQKKVKALEELVSRIDEQVHNHFRRYEVEYLQFAFRWMNNLLMRELPLRCTIRLWDTYQSEPEGFSHFHLYVCAAFLIKWRKEILDEEDFQGLLMLLQNLPTIHWGNEEIGLLLAEAYRLKYMFADAPNHYRR [V100A;L101A] it was “disrupting interaction strength”; in that of MAAENSKQFWKRSAKLPGSIQPVYGAQHPPLDPRLTKNFIKERSKVNTVPLKNKKASSFHEFARNTSDAWDIGDDEEEDFSSPSFQTLNSKVAAAAAAQVLENHSKLRVKPERSQSTTSDVPANYKVIKSSSDAQLSRNSSDTCLRNPLHKQQSLPLRPIIPLVARISDQNASGAPPMTVREKTRLEKFRQLLSSQNTDLDELRKCSWPGVPREVRPITWRLLSGYLPANTERRKLTLQRKREEYFGFIEQYYDSRNEEHHQDTYRQIHIDIPRTNPLIPLFQQPLVQEIFERILFIWAIRHPASGYVQGINDLVTPFFVVFLSEYVEEDVENFDVTNLSQDMLRSIEADSFWCMSKLLDGIQDNYTFAQPGIQKKVKALEELVSRIDEQVHNHFRRYEVEYLQFAFRWMNNLLMRELPLRCTIRLWDTYQSEPEGFSHFHLYVCAAFLIKWRKEILDEEDFQGLLMLLQNLPTIHWGNEEIGLLLAEAYRLKYMFADAPNHYRR [L94A;T96A], “with no effect”.
For MAAENSKQFWKRSAKLPGSIQPVYGAQHPPLDPRLTKNFIKERSKVNTVPLKNKKASSFHEFARNTSDAWDIGDDEEEDFSSPSFQTLNSKVALATAAQVLENHSKLRVKPERSQSTTSDVPANYKVIKSSSDAQLSRNSSDTCLRNPLHKQQSLPLRPIIPLVARIEDQNASGAPPMTVREKTRLEKFRQLLSSQNTDLDELRKCSWPGVPREVRPITWRLLSGYLPANTERRKLTLQRKREEYFGFIEQYYDSRNEEHHQDTYRQIHIDIPRTNPLIPLFQQPLVQEIFERILFIWAIRHPASGYVQGINDLVTPFFVVFLSEYVEEDVENFDVTNLSQDMLRSIEADSFWCMSKLLDGIQDNYTFAQPGIQKKVKALEELVSRIDEQVHNHFRRYEVEYLQFAFRWMNNLLMRELPLRCTIRLWDTYQSEPEGFSHFHLYVCAAFLIKWRKEILDEEDFQGLLMLLQNLPTIHWGNEEIGLLLAEAYRLKYMFADAPNHYRR [S168E], the “effect of a mutation on the interaction” value is “with no effect”.
For MAAENSKQFWKRSAKLPGSIQPVYGAQHPPLDPRLTKNFIKERSKVNTVPLKNKKASSFHEFARNTSDAWDIGDDEEEDFSSPSFQTLNSKVALATAAQVLENHSKLRVKPERSQEEEEDVPANYKVIKSSSDAQLSRNSSDTCLRNPLHKQQSLPLRPIIPLVARISDQNASGAPPMTVREKTRLEKFRQLLSSQNTDLDELRKCSWPGVPREVRPITWRLLSGYLPANTERRKLTLQRKREEYFGFIEQYYDSRNEEHHQDTYRQIHIDIPRTNPLIPLFQQPLVQEIFERILFIWAIRHPASGYVQGINDLVTPFFVVFLSEYVEEDVENFDVTNLSQDMLRSIEADSFWCMSKLLDGIQDNYTFAQPGIQKKVKALEELVSRIDEQVHNHFRRYEVEYLQFAFRWMNNLLMRELPLRCTIRLWDTYQSEPEGFSHFHLYVCAAFLIKWRKEILDEEDFQGLLMLLQNLPTIHWGNEEIGLLLAEAYRLKYMFADAPNHYRR [S116E;T117E;T118E;S119E] the value was “with no effect”.

These data come from IntAct's records for PubMed 23572552.
